According to patent publication US20210371520A1 (AGILENT TECHNOLOGIES, published 2021):

Molecular target: T1, human LAG-3 (Lymphocyte-Activation Gene 3) protein (human, UniProt P18627 23-525)
T1 construct: whole, on cells; Endogenous LAG-3 in normal and tumour tissue sections (IHC), not a recombinant protein; also called CD223
T1 sequence (looked up): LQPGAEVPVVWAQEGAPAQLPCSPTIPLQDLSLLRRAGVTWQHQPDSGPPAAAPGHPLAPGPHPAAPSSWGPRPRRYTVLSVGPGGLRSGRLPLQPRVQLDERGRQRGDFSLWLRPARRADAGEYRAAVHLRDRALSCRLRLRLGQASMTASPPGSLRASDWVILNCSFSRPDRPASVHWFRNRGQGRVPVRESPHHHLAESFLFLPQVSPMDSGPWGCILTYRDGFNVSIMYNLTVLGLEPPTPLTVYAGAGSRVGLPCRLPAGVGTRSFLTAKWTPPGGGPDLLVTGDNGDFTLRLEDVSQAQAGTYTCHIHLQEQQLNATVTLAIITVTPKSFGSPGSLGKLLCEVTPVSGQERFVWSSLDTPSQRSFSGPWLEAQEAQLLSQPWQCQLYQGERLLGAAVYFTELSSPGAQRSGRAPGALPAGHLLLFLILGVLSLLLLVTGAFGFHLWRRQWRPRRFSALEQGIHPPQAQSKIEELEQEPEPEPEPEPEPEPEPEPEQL
Assay: double IHC staining on normal tonsil
From the text: FIG. 9 illustrates tumor tissue samples of Lung Squamous cell Carcinoma (SQC) (FIG. 10) and kidney renal cell carcinoma (RCC) (FIG. 11); the double IHC staining method follows the protocol of Petersen, et al. 2018 [18] using the EnVision FLEX+™ system in a sequential manner, where the exemplary LAG-3 antibody, clone 12H8 (HRP DAB chromagen) constitutes the first layer followed by a sulfuric acid block step and adding an extra EnVision FLEX+™ staining layer on top with PD1 antibody, clone NAT105 (magenta chromogen)); and FIG. 9 illustrates that LAG-3 is co-localized with the PD1 T cell marker in a subpopulation of activated T cells in the germinal center of the tonsil. Other cells belonging to the activated T cell population is only stained by PD1. The B lymphocytes in the germinal center are negative for both the LAG-3 and the PD1 antibody, illustrating the specificity of both these antibodies: (Red arrow: strongly LAG-3 positive, DAB overshadows magenta PD1. Green arrow: weakly pos LAG-3 with both DAB membrane and DAB golgi and PD1 magenta stain visible). PD1 positive, LAG-3 negative T cells: (orange arrow).

binding result: binds
B1: rabbit anti-human LAG-3 antibody, clone 12H8 (antibody, V domains shown)
VH: QSVKESEGGLFKPTDTLTLTCTVSGIDLSSGILVWVRQAPGSGLEWIGGIDANGRAYYASWAKSRSTITRNTNENTVTLKMTSLTAADTATYFCAGGAWNIWGPGTLVTVSS
VL: AQVLTQTPSPVSAAVGGTVTIKCQSSQSVYDSNTLAWFQQKPGQPPKLLMYSASTLAFGVPSRFSGSGSGTQFTLTISDLECADAATYYCLGSYDCSSVDCTAFGGGTEVVVK
notes: also called LAG-3 clone 12H8; exemplary LAG-3 antibody
